Values quoted from earlier work as cited in publication PMC5289555.

Assays:
[1] = molecular target: Hsp90 (Saccharomyces cerevisiae) (UniProt P02829)
[2] = molecular target: Hsp90 zipped construct (Saccharomyces cerevisiae) (UniProt P02829)

| Substance | Kd [1] | Kd [2] |
| --- | --- | --- |
| Hsp90 (from UniProt P02829) | 60 nM |  |
| Hsp90 zipped construct (from UniProt P02829) |  | < 1 pM |
